Test results reported in patent publication US20240343810A1 (published 2024).

T1: mouse ICOS-mFc (Chimerigen) (mouse, UniProt Q9WVS0 21-141, limits assumed)
T1 construct: Bought; also called recombinant mouse ICOS protein; mICOS; not shown: mouse Fc of the bought fusion
T1 sequence: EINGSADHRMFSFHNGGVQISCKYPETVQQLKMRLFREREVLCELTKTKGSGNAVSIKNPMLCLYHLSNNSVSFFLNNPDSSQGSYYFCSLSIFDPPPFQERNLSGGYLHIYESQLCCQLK

T2: human ICOS-mFc (Chimerigen) (human, UniProt Q9Y6W8 21-140)
T2 construct: Bought; also called recombinant human ICOS protein; hICOS; not shown: mouse Fc of the bought fusion
T2 sequence: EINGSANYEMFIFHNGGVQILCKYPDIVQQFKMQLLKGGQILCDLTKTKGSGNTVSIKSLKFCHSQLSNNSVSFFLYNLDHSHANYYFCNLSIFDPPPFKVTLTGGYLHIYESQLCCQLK

T3: human ICOS expressed on cells (human, UniProt Q9Y6W8 21-199)
T3 sequence: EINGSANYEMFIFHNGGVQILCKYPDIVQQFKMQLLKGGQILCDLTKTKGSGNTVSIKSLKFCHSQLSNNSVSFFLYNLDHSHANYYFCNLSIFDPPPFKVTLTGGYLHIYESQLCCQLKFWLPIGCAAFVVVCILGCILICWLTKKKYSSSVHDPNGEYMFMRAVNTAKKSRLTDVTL


How the values were obtained:
[1] = target: T1, mouse ICOS-mFc (Chimerigen); experiment: HTRF, mouse ICOS-mFc, competitor mouse B7-H2-Alexa 647, mean as told in the text (table prints 0.37)
[2] = target: T2, human ICOS-mFc (Chimerigen); experiment: HTRF, human ICOS-mFc, competitor human B7-H2-Alexa 647, n2
Description: (§1) 5 μl of human ICOS-mFc (Chimerigen) at 20 nM (5 nM final) or 5 ul of mouse ICOS-mFc (Chimerigen) at 4 nM (1 nM final) were added to relevant assay wells. Plate was incubated for 1 hour (hr) at room temperature (RT).
(§2) After incubation, assay was read on Envision plate reader (Perkin Elmer) using a standard HTRF protocol. 620 nm and 665 nm channel values were exported to Microsoft Excel and % Delta-F and % Neutralisation calculations performed. Titration curves and IC50 values [M] were plotted using Graphpad (Prism). IC50 values were calculated by first transforming the data using equation X=Log(X). The transformed data was then fitted using nonlinear regression, using fitting algorithm, log (inhibitor) vs. response—variable slope (four parameters).

[3] = target: T3, human ICOS expressed on cells; experiment: cell-based or functional assay
[4] = target: T3, human ICOS expressed on cells; experiment: Flow cytometry on CHO-S human ICOS cells, anti-human IgG AF647, mean
Description: CHO—S cells transfected with either human ICOS or mouse ICOS were resuspended in FACS buffer (PBS+1% w/v BSA+0.1% w/v sodium azide) and transferred to a 96-well V-bottom plate (Greiner) at a density of 1×10⁵ cells per well. mAb and mAb² were titrated in FACS buffer, 1 in 3 dilution across 11 points from a starting working concentration of 400 nM. Plates were centrifuged at 300×g for 3 minutes, supernatant discarded and 50 μL mAb or mAb² solution were added to cells and incubated at 4° C. for 1 hour. Cells were washed with 150 μL of PBS and centrifuged at 300×g for 3 minutes, supernatant was discarded and cell pellet resuspended in 150 μL PBS added. This wash step was repeated twice. Bound mAb or mAb² was detected by addition of 50 μL of anti-human 647 (Jackson ImmunoResearch) diluted to 3 ug/ml in FACS buffer. Cells were incubated for 1 hour at 4° C. in the dark. Cells were washed with 150 μL of PBS and centrifuged at 300 g for 3 minutes, supernatant was discarded and cell pellet resuspended in 150 μL PBS added. This wash step was repeated twice. Cells were fixed with 25 μL 4% v/v paraformaldehyde, incubated for 20 minutes at 4° C., cells were pelleted by centrifugation at 300×g and the supernatant discarded. […] AlexaFluor 647 signal intensity (geometric mean) was measured by flow cytometry using a Beckman Coulter CytoFLEX instrument.

[5] = target: T1, mouse ICOS-mFc (Chimerigen); experiment: DELFIA ELISA on coated mouse ICOS-mFc, N=2
Description: (§3) Recombinant ICOS proteins, human ICOS-mFc or mouse ICOS-mFc (Chimerigen) were diluted in 1×PBS and added to Black Hi-bind plates (Griener) at 1 μg/ml, 50 μl/well. Recombinant PD-L1 proteins, human PD-L1-Flag-His or mouse-His were diluted in 1×PBS and added to Black Hi-bind plates (Griener) at 4 μg/ml, 50 μl/well. The plates were left overnight at 4° C. The next day plates were washed 3× with 300 μl/well of 1×PBS+0.1% Tween and blocked with 200 ul/well of 1×PBS+1% BSA blocking buffer for 1 hr at RT on a plate shaker. Plates were washed 3× with 300 μl/well of 1×PBS+0.1% Tween.
(§4) However, human-PD-L1 mAb² antibodies were diluted in 1×PBS+0.1% BSA buffer and diluted 1 in 2 from a starting working concentration of 0.066 μM over an 11 point titration. Titrated antibodies were added to the plates, 50 μl/well and left to incubate for 1 hr at R.T on a plate shaker. Plates were washed 3× with 300 μl/well of 1×PBS+0.1% Tween.
(§5) DELFIA® Eu-labelled Anti-human IgG (Perkin-Elmer) was diluted 1:500 in DELFIA Assay buffer (Perkin-Elmer) and added to the assay plate (50 μl/well), left to incubate for 1 hr at RT on a plate shaker. […] After incubation, assay was read on Envision plate reader (Perkin Elmer), Time-resolved fluorescence (TRF) was measured at 615 nm.

[6] = target: T1, mouse ICOS-mFc (Chimerigen); experiment: HTRF, mouse ICOS-mFc, competitor mouse B7-H2-Alexa 647, n3
Description: as §1, §2

[7] = target: T2, human ICOS-mFc (Chimerigen); experiment: DELFIA ELISA on coated human ICOS-mFc, N=1
Description: as §3, §4, §5

IC50 [1]	IC50 [2]	EC50 of IFN-γ production, plate-bound antibody, human T-cells + CD3/CD28 beads, donor 276 [3]	EC50 of IFN-γ production, plate-bound antibody, human T-cells + CD3/CD28 beads, donor 278 [3]	EC50 of IFN-γ production, plate-bound antibody, human T-cells + CD3/CD28 beads, donor 289 [3]	EC50 of IFN-γ production, plate-bound antibody, human T-cells + CD3/CD28 beads, donor 295 [3]	EC50 of IFN-γ production, plate-bound antibody, human T-cells + CD3/CD28 beads, median [3]	EC50 [4]	EC50 [5]	IC50 [6]	EC50 [7]	Binder
0.12 nM	0.45 nM	7.1 nM	3.8 nM	~4 nM	~11.6 nM	5.55 nM	5.53 nM	0.386 nM	0.11 nM	0.488 nM	STIM003 (antibody, human IgG1, kappa, Anti-ICOS monospecific antibody, tested as human IgG1; also called STIM003 monoclonal IgG1 antibody) heavy: not shown light: EIVLTQSPGTLSLSPGERATLSCRASQSVSRSYLAWYQQKRGQAPRLLIYGASSRATGIPDRFSGDGSGTDFTLSISRLEPEDFAVYYCHQYDMSPFTFGPGTKVDIKRTVAAPSVFIFPPSDEQLKSGTASVVCLLNNFYPREAKVQWKVDNALQSGNSQESVTEQDSKDSTYSLSSTLTLSKADYEKHKVYACEVTHQGLSSPVTKSFNRGEC
–	1.12 nM	~9.9 nM	~10.2 nM	~11.2 nM	14.5 nM	10.7 nM	21.2 nM	18.7 nM	9.25 nM	20 nM	STIM001 (antibody, human IgG1, kappa, Anti-ICOS monospecific antibody, tested as human IgG1; also called STIM001 monoclonal IgG1 antibody) heavy: not shown light: DIVMTQSPLSLPVTPGEPASISCRSSQSLLHSNEYNYLDWYLQKPGQSPQLLIFLGSNRASGVPDRFSGSGSGTDFTLKITRVEAEDVGIYYCMQSLQTPLTFGGGTKVEIKRTVAAPSVFIFPPSDEQLKSGTASVVCLLNNFYPREAKVQWKVDNALQSGNSQESVTEQDSKDSTYSLSSTLTLSKADYEKHKVYACEVTHQGLSSPVTKSFNRGEC
